# No end group written: not given here. O‑glycan = not defined here
# Key:
# [1] = In vivo half-life assay, serum OCN after intraperitoneal injection in Bglap-/- mice; set-up: species or system mouse; details: for serum OCN / Serum OCN at 120 minutes: fed Bglap-/- male mice; for serum OCN / % OCN from initial (relative to maximum at 30 min) / % OCN from initial, mean used for 1/2 life: 40 ng/g i.p.; for serum OCN: ELISA; for % OCN from initial (relative to maximum at 30 min) / % OCN from initial, mean used for 1/2 life: serum, fasted Bglap-/- mice
# Method: For in vivo half-life assay, Bglap-/- male mice were injected intraperitoneally with 40 or 80 ng/g of body weight of mouse O-glycosylated ucOCN or non-glycosylated ucOCN, serum OCN level was analyzed at indicated time points using total mouse OCN ELISA. In all ex vivo and in vivo studies, mouse or human proteins were prepared in saline solution (0.9% NaCl) containing BSA (35 mg/ml) as a carrier.
# [2] = target: T1, human plasmin (Homo sapiens, UniProt P00747); test: Plasmin enzymatic assay on OCN in heat-inactivated plasma; format: in vitro ADME; details: 2hrs, 37°C; for % OCN from initial: heat-inactivated Bglap-/- plasma diluted two times in 100 mM Tris pH 7.5, 50 ng/ml, ELISA; for % OCN from initial in plasmin (0.3 U/ml): inset graph, heat-inactivated Bglap-/- plasma, 50 ng/ml
# T1 construct: different concentration of human plasmin (Sigma); purchased Sigma P1867
# Method: The plasmin enzymatic assay was performed on plasma ex vivo in the presence of non-glycosylated OCN and glycosylated OCN as follows: plasma from Bglap-/- mice was heat-inactivated for 30 min at 56°C, then diluted two times in the enzyme assay buffer containing 100 mM Tris buffer pH 7.5. Non-glycosylated OCN or glycosylated OCN was incubated at 50 ng/ml in the diluted plasma for two hours in the presence of different concentration of human plasmin (Sigma) ranging from 0 to 0.3 U/ml. After two hours, OCN level was measured using total mouse OCN ELISA. Results are represented as percentage of initial concentration of non-glycosylated and glycosylated OCN respectively.
# T1 sequence (P00747 581-810 limits assumed): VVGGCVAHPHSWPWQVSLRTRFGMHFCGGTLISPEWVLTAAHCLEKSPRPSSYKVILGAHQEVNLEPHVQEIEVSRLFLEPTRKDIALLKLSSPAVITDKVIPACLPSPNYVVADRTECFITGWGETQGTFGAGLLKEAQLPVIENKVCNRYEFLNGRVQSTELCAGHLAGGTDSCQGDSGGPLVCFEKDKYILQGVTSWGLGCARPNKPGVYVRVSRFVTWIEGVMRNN
# T1 sequence (P00747 97-580 partner limits assumed): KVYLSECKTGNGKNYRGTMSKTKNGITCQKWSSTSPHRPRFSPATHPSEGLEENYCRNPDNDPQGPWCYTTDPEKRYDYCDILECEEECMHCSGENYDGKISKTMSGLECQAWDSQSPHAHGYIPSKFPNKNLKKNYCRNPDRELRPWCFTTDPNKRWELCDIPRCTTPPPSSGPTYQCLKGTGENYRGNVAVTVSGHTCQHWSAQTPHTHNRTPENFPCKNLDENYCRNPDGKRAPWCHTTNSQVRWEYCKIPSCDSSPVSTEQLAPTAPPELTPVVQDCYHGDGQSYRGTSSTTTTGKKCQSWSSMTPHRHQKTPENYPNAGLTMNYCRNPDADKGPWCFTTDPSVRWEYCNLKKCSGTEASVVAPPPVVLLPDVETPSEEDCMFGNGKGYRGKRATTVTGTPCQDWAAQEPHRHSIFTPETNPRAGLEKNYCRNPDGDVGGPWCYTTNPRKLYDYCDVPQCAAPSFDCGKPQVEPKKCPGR
substance,measurement,setting,value
"O-gly ucOCN: O-glycosylated uncarboxylated mouse osteocalcin produced and purified from HEK293 as Fc fusion, released by thrombin (YLGASVPS(O‑glycan)PDPLEPTREQCELNPACDELSDQYGLKTAYKRIYGITI; ends and bridges not checked; also: O-glycosylated (HexNAc, Hex, NANA); UniProt P86546 50-95, looked up)",serum OCN,"[1]; 90 min, mouse 10",11.4 ng/mL
same,serum OCN,"[1]; 120 min, mouse 1",5.5 ng/mL
same,serum OCN,"[1]; 120 min, mouse 2",9.5 ng/mL
same,serum OCN,"[1]; 120 min, mouse 3",4.6 ng/mL
same,serum OCN,"[1]; 120 min, mouse 4",13.3 ng/mL
same,serum OCN,"[1]; 120 min, mouse 5",10.2 ng/mL
same,serum OCN,"[1]; 120 min, mouse 6",7.5 ng/mL
same,serum OCN,"[1]; 120 min, mouse 7",4.4 ng/mL
same,serum OCN,"[1]; 120 min, mouse 8",8.5 ng/mL
same,serum OCN,"[1]; 120 min, mouse 9",6.4 ng/mL
same,serum OCN,"[1]; 120 min, mouse 10",5.9 ng/mL
same,serum OCN,"[1]; 180 min, mouse 1",1.2 ng/mL
same,serum OCN,"[1]; 180 min, mouse 2",2.3 ng/mL
same,serum OCN,"[1]; 180 min, mouse 3",1.0 ng/mL
same,serum OCN,"[1]; 180 min, mouse 4",2.9 ng/mL
same,serum OCN,"[1]; 180 min, mouse 5",2.4 ng/mL
same,serum OCN,"[1]; 180 min, mouse 6",4.2 ng/mL
same,serum OCN,"[1]; 180 min, mouse 7",3.5 ng/mL
same,serum OCN,"[1]; 180 min, mouse 8",4.0 ng/mL
same,serum OCN,"[1]; 180 min, mouse 9",3.7 ng/mL
same,serum OCN,"[1]; 180 min, mouse 10",3.9 ng/mL
same,Serum OCN at 120 minutes,"[1]; dose 40 ng/g i.p., mouse 1",9.5 ng/mL
same,Serum OCN at 120 minutes,"[1]; dose 40 ng/g i.p., mouse 2",4.6 ng/mL
same,Serum OCN at 120 minutes,"[1]; dose 40 ng/g i.p., mouse 3",13.3 ng/mL
same,Serum OCN at 120 minutes,"[1]; dose 40 ng/g i.p., mouse 4",10.2 ng/mL
same,Serum OCN at 120 minutes,"[1]; dose 80 ng/g i.p., mouse 1",11.6 ng/mL
same,Serum OCN at 120 minutes,"[1]; dose 80 ng/g i.p., mouse 2",22.5 ng/mL
same,Serum OCN at 120 minutes,"[1]; dose 80 ng/g i.p., mouse 3",25.2 ng/mL
same,Serum OCN at 120 minutes,"[1]; dose 80 ng/g i.p., mouse 4",14.9 ng/mL
same,% OCN from initial (relative to maximum at 30 min),"[1]; 30 min, mouse 1",100.0%
same,% OCN from initial (relative to maximum at 30 min),"[1]; 30 min, mouse 2",100.0%
same,% OCN from initial (relative to maximum at 30 min),"[1]; 30 min, mouse 3",100.0%
same,% OCN from initial (relative to maximum at 30 min),"[1]; 30 min, mouse 4",100.0%
same,% OCN from initial (relative to maximum at 30 min),"[1]; 30 min, mouse 5",100.0%
same,% OCN from initial (relative to maximum at 30 min),"[1]; 60 min, mouse 1",89.4%
same,% OCN from initial (relative to maximum at 30 min),"[1]; 60 min, mouse 2",88.9%
same,% OCN from initial (relative to maximum at 30 min),"[1]; 60 min, mouse 3",97.3%
same,% OCN from initial (relative to maximum at 30 min),"[1]; 60 min, mouse 4",86.4%
same,% OCN from initial (relative to maximum at 30 min),"[1]; 60 min, mouse 5",90.9%
same,% OCN from initial (relative to maximum at 30 min),"[1]; 90 min, mouse 1",85.8%
same,% OCN from initial (relative to maximum at 30 min),"[1]; 90 min, mouse 2",74.3%
same,% OCN from initial (relative to maximum at 30 min),"[1]; 90 min, mouse 3",85.8%
same,% OCN from initial (relative to maximum at 30 min),"[1]; 90 min, mouse 4",74.6%
same,% OCN from initial (relative to maximum at 30 min),"[1]; 90 min, mouse 5",75.0%
same,% OCN from initial (relative to maximum at 30 min),"[1]; 120 min, mouse 1",70.4%
same,% OCN from initial (relative to maximum at 30 min),"[1]; 120 min, mouse 2",66.4%
same,% OCN from initial (relative to maximum at 30 min),"[1]; 120 min, mouse 3",75.1%
same,% OCN from initial (relative to maximum at 30 min),"[1]; 120 min, mouse 4",74.6%
same,% OCN from initial (relative to maximum at 30 min),"[1]; 120 min, mouse 5",74.7%
same,"% OCN from initial, mean used for 1/2 life",[1]; time 0 min of declining phase,100.0%
same,"% OCN from initial, mean used for 1/2 life",[1]; time 30 min of declining phase,90.6%
same,"% OCN from initial, mean used for 1/2 life",[1]; time 60 min of declining phase,79.1%
same,"% OCN from initial, mean used for 1/2 life",[1]; time 90 min of declining phase,72.2%
same,% OCN from initial,"[2]; plasmin 0 U/ml, replicate 1",96.7%
same,% OCN from initial,"[2]; plasmin 0 U/ml, replicate 2",103.3%
same,% OCN from initial,"[2]; plasmin 0.024 U/ml, replicate 1",81.4%
same,% OCN from initial,"[2]; plasmin 0.024 U/ml, replicate 2",86.9%
same,% OCN from initial,"[2]; plasmin 0.12 U/ml, replicate 1",63.3%
same,% OCN from initial,"[2]; plasmin 0.12 U/ml, replicate 2",75.7%
same,% OCN from initial,"[2]; plasmin 0.3 U/ml, replicate 1",34.5%
same,% OCN from initial,"[2]; plasmin 0.3 U/ml, replicate 2",40.8%
same,% OCN from initial in plasmin (0.3 U/ml),[2]; replicate 1,34.5%
same,% OCN from initial in plasmin (0.3 U/ml),[2]; replicate 2,40.8%
same,% OCN from initial in plasmin (0.3 U/ml),[2]; replicate 3,32.1%
same,% OCN from initial in plasmin (0.3 U/ml),[2]; replicate 4,27.0%
same,% OCN from initial in plasmin (0.3 U/ml),[2]; replicate 5,38.6%
